Data on 3 molecules can be found in patent US20240410900A1 (Hoffmann-La Roche, published 2024).

Experiment [1] deals with T1, anti-VEGF/ANG2 antibody (wild-type IgG1 subclass) (UniProt P01857-1 1-330 = IgG part).
T1 construct: also called sample 5; antibody 5
Briefly: ELISA assay B, tracer M1.7.10-Dig, target 13 ng/mL. The protocol:
(§1) Biotinylated anti-PG Fc-region antibody or biotinylated anti-AAA Fc-region antibody, respectively, was bound to the wells of a streptavidin-coated multi-well plate (SA-MTP) to produce a capture plate. Excess of unbound antibody was removed by washing. Sample/standard antibodies spiked in human and cynomolgus monkey serum (10% final concentration) was added to wells of the SA-MTP multi-well plate coated with the capture plate and incubated for 1 hour at room temperature. After washing, the wells were incubated with digoxygenylated anti-human kappa antibody M1.7.10 (see e.g. WO 2011/048043, incorporated herein by reference). After washing the bound digoxygenylated anti-human kappa antibody complex was incubated with a horseradish peroxidase (HRP) labelled anti-digoxygenin antibody. After another washing step, an ABTS solution was added to the wells and incubated. The product of the color reaction was measured by Elisa reader at 405 nm wavelength (reference wavelength: 490 nm). Absorbance values of each sample or standard were determined in triplicates.
For orientation: ELISA stands for enzyme-linked immunosorbent assay.

Experiment [2] concerns the target T2, anti-P-Selectin antibody (IgG4 subclass with mutations S228P/L235E).
T2 construct: Positions are EU numbers; also called sample 4; antibody 4
Briefly: ELISA assay B, tracer M1.7.10-Dig, target 13 ng/mL. The protocol:
as §1

The target of experiment [3] is T3, anti-IGF-1R antibody (IgG1 subclass with mutations I253A/H310A/H435A).
T3 construct: Positions are EU numbers; also called sample 3; antibody 3
In words: ELISA assay B, tracer M1.7.10-Dig, target 13 ng/mL. The protocol: as §1

Experiment [4] has as its target T4, anti-VEGF/ANG2 antibody (IgG1 subclass with mutations P329G/L234A/L235A).
T4 construct: Positions are EU numbers; also called sample 2; antibody 2
In words: ELISA assay B, tracer M1.7.10-Dig, target 13 ng/mL. The protocol:
as §1

Experiment [5] deals with T5, anti-VEGF/ANG2 antibody (IgG1 subclass with mutations P329G/L234A/L235A/I253A/H310A/H435A).
T5 construct: Format of the bispecific antibody not described; Positions are EU numbers, not positions on the UniProt entry; also called sample 1; antibody 1
Briefly: ELISA assay B, tracer M1.7.10-Dig, target 13 ng/mL. The procedure: as §1

Experiment [6] addresses T1, anti-VEGF/ANG2 antibody (wild-type IgG1 …). Briefly: ELISA assay B, tracer M1.7.10-Dig, target 0 ng/mL (blank). The procedure:
as §1

In experiment [7] the target is T2, anti-P-Selectin antibody (IgG4 subclass …). The experiment is described as above. The protocol: as §1
The target of experiment [8] is T3, anti-IGF-1R antibody (IgG1 subclass …). Described as above. The protocol:
as §1

Experiment [9] addresses T4, anti-VEGF/ANG2 antibody (IgG1 subclass …). Described as above. The procedure: as §1
Experiment [10] addresses T5, anti-VEGF/ANG2 antibody (IgG1 subclass …). Described as above. The protocol: as §1
Experiment [11] has as its target T1, anti-VEGF/ANG2 antibody (wild-type IgG1 …). Briefly: ELISA assay B, tracer M1.7.10-Dig, target 2 ng/mL. The procedure:
as §1

For experiment [12], the target named is T2, anti-P-Selectin antibody (IgG4 subclass …). In words: ELISA assay B, tracer M1.7.10-Dig, target 2 ng/mL. The procedure: as §1
For experiment [13], the target named is T3, anti-IGF-1R antibody (IgG1 subclass …). Briefly: ELISA assay B, tracer M1.7.10-Dig, target 2 ng/mL. The protocol:
as §1

For experiment [14], the target named is T5, anti-VEGF/ANG2 antibody (IgG1 subclass …). Briefly: ELISA assay B, tracer M1.7.10-Dig, target 2 ng/mL. The procedure:
as §1

Experiment [15] addresses T1, anti-VEGF/ANG2 antibody (wild-type IgG1 …). Briefly: ELISA assay C, tracer FcγRI-Dig, target 2 ng/mL.
Experiment [16] deals with T2, anti-P-Selectin antibody (IgG4 subclass …). Briefly: ELISA assay C, tracer FcγRI-Dig, target 2 ng/mL.
Experiment [17] deals with T3, anti-IGF-1R antibody (IgG1 subclass …). Briefly: ELISA assay C, tracer FcγRI-Dig, target 2 ng/mL.
Experiment [18] deals with T4, anti-VEGF/ANG2 antibody (IgG1 subclass …). In words: ELISA assay C, tracer FcγRI-Dig, target 2 ng/mL.
The target in experiment [19] is T5, anti-VEGF/ANG2 antibody (IgG1 subclass …). In words: ELISA assay C, tracer FcγRI-Dig, target 2 ng/mL.
In experiment [20] the target is T1, anti-VEGF/ANG2 antibody (wild-type IgG1 …). Briefly: ELISA assay B, tracer M1.7.10-Dig, target 3 ng/mL. The procedure: as §1
The target in experiment [21] is T2, anti-P-Selectin antibody (IgG4 subclass …). In words: ELISA assay B, tracer M1.7.10-Dig, target 3 ng/mL. The protocol: as §1
Experiment [22] has as its target T4, anti-VEGF/ANG2 antibody (IgG1 subclass …). In words: ELISA assay B, tracer M1.7.10-Dig, target 3 ng/mL. The protocol: as §1
In experiment [23] the target is T5, anti-VEGF/ANG2 antibody (IgG1 subclass …). In words: ELISA assay B, tracer M1.7.10-Dig, target 3 ng/mL. The protocol: as §1

B1: anti-AAA variant Fc-region antibody M1.6.22 (antibody, V domains shown)
VH: EVQLVESGGDLVKPGGSLKLSCAASGFTFSSYGMSWVRQTPDKRLEWVATISSGGSYIYYPDSVKGRFTISRDNAKNTLYLQMSSLKSEDTAMYYCARLGMITTGYAMDYWGQGTSVTVSS
VL: DVLMTQTPLSLPVSLGDQASISCRSSQTIVHSTGHTYLEWFLQKPGQSPKLLIYKVSNRFSGVPDRFSGSGSGTDFTLKISRVEAEDLGVYYCFQGSHVPYTFGGGTKLEIK
notes: Murine variable domains; also called M1.6.22-Bi
In the case of B1, the “signal [OD405 nm]” value in [1] stood at 0.046 OD405 nm; in experiment [2], 0.042 OD405 nm; in experiment [3], 2.85 OD405 nm; in [4], 0.066 OD405 nm; in [5], 0.041 OD405 nm; in experiment [6], 0.037 OD405 nm. The “signal [OD405 nm]” value turned out to be 0.038 OD405 nm in experiment [7]; 0.037 OD405 nm in experiment [8]; 0.038 OD405 nm in experiment [9]; 0.047 OD405 nm in experiment [10]; 0.036 OD405 nm in [11]; 0.032 OD405 nm in [12]. Besides, the “signal [OD405 nm]” value in experiment [13] came out at 1.48 OD405 nm; in experiment [14], 0.041 OD405 nm; in experiment [15], 0.077 OD405 nm; in [16], 0.067 OD405 nm; in experiment [17] it was 0.082 OD405 nm; in experiment [18] it was 0.072 OD405 nm. Further, the “signal [OD405 nm]” value in experiment [19] worked out at 0.077 OD405 nm; in experiment [20], 0.037 OD405 nm; in experiment [21], 0.039 OD405 nm; in experiment [22] it was 0.044 OD405 nm; in experiment [23], 0.039 OD405 nm.

B2: anti-PG variant Fc-region antibody M1.3.17 (antibody, V domains shown)
VH: EVKLLESGGGLVQPGGSLKLSCAASGIDFRRYWMNWVRQAPGKGLEWIGEIDPDSSTINYTPSLKDKFIISRDNAKNTMYLQMRKVRSEDTALYYCARPYDYGAWFAYWGQGTLVTVSA
VL: QAVVTQESALTTSPGETVTLTCRSTTGAVTTSNYANWVQEKPDHLFTGLIGGTNKRAPGVPARFSGSLIGDKAALTITGAQTEDEAIYFCALWYSDHWVFGGGTKLTVL
notes: Monomeric, bivalent full-length antibody with murine variable domains; Biotinylated when used as capture antibody; also called anti-PG antibody clone 1.3.17; M1.3.17-Bi
In the case of B2, the “signal [OD405 nm]” value in experiment [1] is 0.042 OD405 nm; in [2] it was 0.047 OD405 nm; in experiment [3] it was 0.044 OD405 nm; in experiment [4], 0.217 OD405 nm; in [5] it was 0.034 OD405 nm; in experiment [6], 0.043 OD405 nm. For the same molecule, the “signal [OD405 nm]” value came out at 0.049 OD405 nm in [7]; 0.045 OD405 nm in [8]; 0.038 OD405 nm in experiment [9]; 0.035 OD405 nm in experiment [10]; 0.043 OD405 nm in experiment [11]; 0.049 OD405 nm in experiment [12]. The “signal [OD405 nm]” value in experiment [13] amounted to 0.047 OD405 nm; in [14] it was 0.036 OD405 nm; in experiment [15] it was 1.19 OD405 nm; in experiment [16], 1.19 OD405 nm; in experiment [17], 1.26 OD405 nm; in [18], 1.22 OD405 nm. For the same molecule, the “signal [OD405 nm]” value in experiment [19] was 1.17 OD405 nm; in [20] it was 0.044 OD405 nm; in [21], 0.05 OD405 nm; in [22], 0.165 OD405 nm; in [23], 0.036 OD405 nm.

B3: anti-PG variant Fc-region antibody M1.7.24 (monomeric, bivalent) (antibody, V domains shown)
VH: EVKLLESGGGLVQPGGSLKLSCAASGFDFSRYWMNWVRQAPGKGLEWIGEITPDSSTINYTPSLKDKFIISRDNAKNTLYLQMIKVRSEDTALYYCVRPYDYGAWFASWGQGTLVTVSA
VL: QAVVTQESALTTSPGETVTLTCRSSTGAVTTSNYANWVQEKPDHLFTGLIGGTNKRAPGVPARFSGSLIGDKAALTITGAQTEDEAIYFCALWYSNHWVFGGGTKLTVL
notes: Full-length Y-shaped antibody with murine variable domains; Biotinylated when used as capture antibody; also called anti-PG antibody clone 1.7.24; M1.7.24-Bi
Turning to B3, the “signal [OD405 nm]” value in experiment [1] turned out to be 0.04 OD405 nm; in [2], 0.037 OD405 nm; in [3] it was 0.043 OD405 nm; in experiment [4], 3.15 OD405 nm; in [5] it was 0.053 OD405 nm; in experiment [6] it was 0.039 OD405 nm. Besides, the “signal [OD405 nm]” value in experiment [7] came to 0.035 OD405 nm; in experiment [8], 0.04 OD405 nm; in experiment [9] it was 0.046 OD405 nm; in experiment [10] it was 0.049 OD405 nm; in experiment [11] it was 0.034 OD405 nm; in experiment [12] it was 0.033 OD405 nm. Besides, the “signal [OD405 nm]” value in [13] was 0.047 OD405 nm; in [14], 0.049 OD405 nm; in experiment [15] it was 0.058 OD405 nm; in [16] it was 0.056 OD405 nm; in experiment [17], 0.074 OD405 nm; in experiment [18], 0.093 OD405 nm. In addition, the “signal [OD405 nm]” value in [19] stood at 0.085 OD405 nm; in experiment [20] it was 0.033 OD405 nm; in [21], 0.031 OD405 nm; in [22], 2.51 OD405 nm; in experiment [23], 0.04 OD405 nm.
